T1: rhesus CD137Fc recombinant protein (Sino Biologicals cat no. 90847-K02H) (rhesus; human, UniProt H9Z8K9 24-186)
T1 construct: Bought protein; also called rhesus CD137-human IgG1 Fc tagged protein; not shown: human IgG1 Fc tag
T1 sequence: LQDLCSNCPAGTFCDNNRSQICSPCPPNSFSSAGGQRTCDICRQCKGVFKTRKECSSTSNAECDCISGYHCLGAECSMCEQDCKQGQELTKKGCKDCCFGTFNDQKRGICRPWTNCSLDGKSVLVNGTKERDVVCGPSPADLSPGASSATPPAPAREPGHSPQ

B1: 4.1(PSMA-binding VH)-6GS-2.1 (bispecific antibody)
chain: EVQLVESGGGVVQPGRSLRLSCAASGFSFSGYGMHWVRQAPGKGLEWVAYISYDGSNKYYADSVKGRFTISRDNSKNTLYLQMNSLRAEDTAVYYCAKDPAWGLRLGESSSYDFDIWGQGTMVTVSSGGGGSGGGGSGGGGSGGGGSGGGGSGGGGSEVQLVESGGGLVKPGGSLRVSCAASGFTFSDYYMSWFRQAPGKGLEWVSYISGSGDIIDYADSVKGRFTISRDNAKNSLYLQMNNLRAEDTAVYHCAREDSRLTGTTDFDNWGQGTLVTVSS
notes: tandem VH, PSMA x CD137; also called 4.1-6GS-2.1; not shown: His tag
B2: 4.1(PSMA-binding VH)-6GS-1.1 (bispecific antibody)
chain: EVQLVESGGGVVQPGRSLRLSCAASGFSFSGYGMHWVRQAPGKGLEWVAYISYDGSNKYYADSVKGRFTISRDNSKNTLYLQMNSLRAEDTAVYYCAKDPAWGLRLGESSSYDFDIWGQGTMVTVSSGGGGSGGGGSGGGGSGGGGSGGGGSGGGGSEVQLVESGGGLVQPGGSLRLSCAASGFTFSSHWMTWFRQAPGKGLEWVAHIKEDGSEKYYEDSVEGRFTVSRDNAKNSVYLQMNSLRAEDTAVYYCARGGDGYSDSHFGVDVWGQGTTVTVSS
notes: tandem VH, PSMA x CD137; also called 4.1-6GS-1.1; not shown: His tag
B3: Humabody VH 1.113 (VHH)
VH: EVQLVESGGGLVQPGGSLRLSCAASGFTLSNYWMNWVRQAPGKGLEWVANINQDGSERYYVDSVKGRFTISRDNAKNSLYLQMNSLRAEDTAVYYCARGGEGYGVDHYGLDVSGQGTTVTVSSHHHHHH
notes: human single VH domain

Key:
[1] = target: T2, human PSMA expressed on cells (human, UniProt Q04609 1-750); experiment: FMAT, DU145 PSMA cells
T2 construct: One molecule for both cell lines (CHO human PSMA, DU145 PSMA); the cell line stands under assay; also called CHO human PSMA; CHO PSMA
Procedure: (§1) Binding of His-tagged molecules to CHO human CD137, CHO parent, CHO human PSMA, DU145 PSMA and DU145 parent cells was assessed using Fluorescence Microvolume Assay Technology (FMAT). All reagents were prepared in FMAT assay buffer (pH 7.4) containing PBS, 0.1% Bovine Serum Albumin, 0.05% Sodium Azide. Serially diluted samples were transferred into 384 well black clear-bottomed assay plates (Costar cat. no. 3655) and incubated for a minimum of 2 hours at room temperature with 1.5 nM Anti-His (Millipore cat. no. 05-949), […] Goat Anti-Mouse Alexa Fluor-488 (Jackson ImmunoResearch cat. no. 115-545-071) and 2000 cells/well pre-stained with DRAQ5 (Thermo Scientific cat. no. 62251). Fluorescence emission was then measured on the TTP Mirrorball plate reader in the FL2 (502 nm-537 nm) and FL5 (677-800 nm) channels following excitation at 488 nm and 640 nm. Data was gated on FL5 perimeter and peak intensity and the FL2 median mean fluorescence intensity of the gated data used for determination of VH binding. Monovalent CD137 specific Humabody® VH, bispecific and trispecific molecules with a CD137 binding arm bound to CHO CD137 expressing cells. Monovalent PSMA specific Humabody® VH, bispecific and trispecific molecules with a PSMA binding arm bound to PSMA expressing cells.

[2] = target: T2, human PSMA expressed on cells; experiment: FMAT, CHO human PSMA cells
Procedure: as §1

[3] = target: T3, human CD137 expressed on the surface of CHO cells (human, UniProt Q07011 24-255); experiment: FMAT, CHO human CD137 cells
T3 construct: Also used for the Jurkat reporter cells that express human CD137 (functional rows); also called CHO human CD137 cells; CHO huCD137
Procedure: as §1

[4] = target: T3, human CD137 expressed on the surface of …; experiment: FMAT ligand inhibition, CD137 Ligand on CHO human CD137 cells
Procedure: In parallel to the binding assay, periplasmic extracts were tested for their ability to inhibit the interaction of human CD137 ligand protein with CHO human CD137 cells in an FMAT format. Total binding controls containing diluted periplasmic extract sample buffer and non-specific binding controls containing excess non-Fc tagged competitor were set up on each plate for data normalisation. Fluorescence signal was measured using the TTP Mirrorball and the FL2 median mean fluorescence intensity of gated used for the data normalisation. The data was expressed as a % of the total binding control (% control) after subtraction of the background signal determined from the non-specific binding control wells.
The ability of purified Humabody VH to inhibit the binding of CD137 Ligand to CHO human CD137 cells was measured in the FMAT ligand inhibition assay essentially as described in Example 6. VH inhibited the binding of human CD137 Ligand to human CD137.

[5] = target: T4, human CD137-human Fc chimeric protein (Acro Biosystems cat no. 41B-H5258) (human, UniProt Q07011 24-186); experiment: BLI (Octet RED384), CD137-Fc amine-coupled to AR2G sensors, 1:1 model
T4 construct: Bought protein; The Octet Protein G and Biacore experiments name no catalogue number; also called human CD137Fc recombinant protein; human CD137-Fc recombinant protein; not shown: human IgG1 Fc tag
Procedure: (§2) The kinetics of monovalent and bispecific Humabody VH were determined on a ForteBio Octet RED 384 instrument. To study the interaction with the antigens, CD137-Fc tag protein (Acro Biosystems cat no. 41B-H5258) or PSMA-his (R&D Systems cat no. 4234-ZN) was immobilised onto AR2G biosensors (ForteBio cat no. 18-5082) by amine coupling. Monovalent VH and bispecific molecules were serially diluted (typically 1:2 dilution series starting between 12-25 nM, at the highest concentration) in kinetics buffer (0.1% BSA, 0.02% Tween, 1×PBS) and binding to the immobilised proteins was studied during the association and dissociation phases. PSMA binding was measured using 180 seconds association and 600 seconds dissociation phases. CD137 binding was measured 180 seconds association and 600 seconds dissociation phases. Reference subtracted data were fitted to a 1:1 binding model using the ForteBio Octet Data Analysis software.

[6] = target: T5, PSMA-his (R&D Systems cat no. 4234-ZN) (human, UniProt Q04609 44-750); experiment: BLI (Octet RED384), PSMA-his amine-coupled to AR2G sensors, 1:1 model
T5 construct: Bought protein; also called Human PSMA; not shown: His tag
Procedure: as §2

[7] = target: T6, CD137 on pre-stimulated human CD8+ T cells (human, UniProt Q07011 24-255); experiment: flow cytometry, PMA/ionomycin-stimulated human CD8+ T cells, mean of 2-3 donors
T6 construct: also called pre-stimulated CD8+ cells; primary T cells
Procedure: Binding to primary T cells was measured using flow cytometry. Peripheral blood mononuclear cells (PBMCs) were isolated from human blood by density gradient centrifugation then CD8+ T cells purified using a negative selection isolation kit according to the manufacturer's protocol (Miltenyi Biotech cat no 130-042-401). T-cells were stimulated PMA/Ionomycin for 48-72 hours in RPMI media supplemented with 10% FBS, 2 mM Glutamine, 1× Pen/Strep. Cells were transferred into 96 well plates, blocked for 10 mins with staining buffer (PBS/1% BSA/0.05% Sodium Azide) then incubated with serially diluted VH in staining buffer (PBS/1% BSA) for 30 mins-1 hour at 4° C. Cells were washed by centrifugation then VH binding detected using Anti His antibody (Millipore 05-949) and Goat Anti Mouse Alexa Fluor-488 (Jackson ImmunoResearch cat no. 115-545-071). A Live Dead near IR stain (Molecular Probes cat no. L10119) was used for discrimination of live cells. After further washing cells were fixed and fluorescence measured by flow cytometry.

[8] = target: T2, human PSMA expressed on cells; experiment: dual binding cell ELISA: the titrated step is the binding of the bispecific to CHO human PSMA cells; readout is bound CD137huFc (fixed 1 nM) with anti human Fc-HRP, so the value reflects dual engagement
Procedure: Dual target engagement of CD137 and PSMA by the bispecific molecules was assessed using an ELISA format. CHO-PSMA cells (20000/well) were seeded into 96 well plates (Greiner cat no. 353872) in Hams F12 supplemented with L-Glutamine+Blasticidin+Tetracycline and incubated at 37° C. with 5% CO₂ overnight. All subsequent steps were performed at room temperature and included washes with PBS between each step. Plates were blocked with PBS/0.1% BSA for 1 hour then serially diluted Humabody® VH were added and allowed to bind for 1 hour. Following removal of unbound VH, 1 nM CD137huFc (Acro Biosystems cat no. 41B-H5258) was added to the wells and incubated for 1 hour. A 1:3000 dilution of Anti-huFc-HRP (Jackson ImmunoResearch cat no. 109-035-098) was subsequently added for 1 hour and plates developed by addition of TMB. The reaction was stopped by addition of 0.5M sulphuric acid and plates read on BMG PheraStar at Absorbance 450 nm.

[9] = target: T4, human CD137-human Fc chimeric protein …; experiment: SPR (Biacore T200), single cycle kinetics, CD137-Fc captured on Protein G chip, mean ± SD; human CD137Fc
Procedure: (§3) The Biacore T200 instrument was used to study the interaction between VH with human and rhesus CD137-human IgG1 Fc tagged protein by surface plasmon resonance (SPR). Single cycle kinetics assays used to evaluate the kinetics and affinity of the interaction. Experiments were performed at 25° C. in HBS-EP+ assay buffer with a flow rate of 30 μl/minute. A Protein G chip was used to capture the Fc tagged recombinant CD137 diluted to 2 μg/ml to one of the flow cells over 7 seconds. A second flow cell without any captured CD137 was used as the reference cell. A five point, three-fold dilution series of VH was made with a top concentration of 60 nM. The binding kinetics were followed by flowing these over the chip surface. The contact time for each of the binding steps was 180 seconds and the dissociation step was 1800 and 3600 seconds for rhesus and human CD137 respectively. After each run, the sensors were regenerated with glycine pH 1.5 to remove the captured CD137. The data was fitted to a 1:1 binding model after double reference subtraction using the Biacore T200 Evaluation software.

[10] = target: T1, rhesus CD137Fc recombinant protein …; experiment: SPR (Biacore T200), single cycle kinetics, rhesus CD137-Fc captured on Protein G chip, mean ± SD; rhesus CD137Fc
Procedure: as §3

T3 sequence (Q07011 24-255 limits assumed): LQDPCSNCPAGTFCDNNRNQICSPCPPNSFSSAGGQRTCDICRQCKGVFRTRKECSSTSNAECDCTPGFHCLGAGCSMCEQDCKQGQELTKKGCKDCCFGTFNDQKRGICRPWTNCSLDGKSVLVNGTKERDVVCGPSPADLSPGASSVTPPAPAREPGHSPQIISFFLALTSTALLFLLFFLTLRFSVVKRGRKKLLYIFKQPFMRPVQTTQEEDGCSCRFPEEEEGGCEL
T2 sequence (Q04609 whole entry): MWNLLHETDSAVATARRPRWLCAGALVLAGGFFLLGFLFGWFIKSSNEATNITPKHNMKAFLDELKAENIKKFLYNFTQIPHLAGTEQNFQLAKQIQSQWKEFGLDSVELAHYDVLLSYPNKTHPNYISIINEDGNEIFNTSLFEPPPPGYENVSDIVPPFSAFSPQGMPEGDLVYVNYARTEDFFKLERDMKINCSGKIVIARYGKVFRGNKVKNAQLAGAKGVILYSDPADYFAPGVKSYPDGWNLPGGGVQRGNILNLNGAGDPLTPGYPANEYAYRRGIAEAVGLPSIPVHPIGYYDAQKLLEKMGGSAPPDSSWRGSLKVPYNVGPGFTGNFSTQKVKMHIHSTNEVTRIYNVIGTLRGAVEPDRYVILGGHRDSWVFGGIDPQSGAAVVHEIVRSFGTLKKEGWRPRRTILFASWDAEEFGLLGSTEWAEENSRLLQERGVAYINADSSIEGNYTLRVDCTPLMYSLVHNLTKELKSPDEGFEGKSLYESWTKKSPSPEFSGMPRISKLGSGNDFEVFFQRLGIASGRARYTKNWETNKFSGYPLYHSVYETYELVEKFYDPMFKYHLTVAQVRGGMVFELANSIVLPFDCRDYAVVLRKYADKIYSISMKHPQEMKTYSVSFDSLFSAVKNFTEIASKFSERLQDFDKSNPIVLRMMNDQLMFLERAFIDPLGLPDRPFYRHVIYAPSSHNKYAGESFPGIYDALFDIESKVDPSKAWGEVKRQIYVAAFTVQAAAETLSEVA
T5 sequence (Q04609 44-750 limits assumed): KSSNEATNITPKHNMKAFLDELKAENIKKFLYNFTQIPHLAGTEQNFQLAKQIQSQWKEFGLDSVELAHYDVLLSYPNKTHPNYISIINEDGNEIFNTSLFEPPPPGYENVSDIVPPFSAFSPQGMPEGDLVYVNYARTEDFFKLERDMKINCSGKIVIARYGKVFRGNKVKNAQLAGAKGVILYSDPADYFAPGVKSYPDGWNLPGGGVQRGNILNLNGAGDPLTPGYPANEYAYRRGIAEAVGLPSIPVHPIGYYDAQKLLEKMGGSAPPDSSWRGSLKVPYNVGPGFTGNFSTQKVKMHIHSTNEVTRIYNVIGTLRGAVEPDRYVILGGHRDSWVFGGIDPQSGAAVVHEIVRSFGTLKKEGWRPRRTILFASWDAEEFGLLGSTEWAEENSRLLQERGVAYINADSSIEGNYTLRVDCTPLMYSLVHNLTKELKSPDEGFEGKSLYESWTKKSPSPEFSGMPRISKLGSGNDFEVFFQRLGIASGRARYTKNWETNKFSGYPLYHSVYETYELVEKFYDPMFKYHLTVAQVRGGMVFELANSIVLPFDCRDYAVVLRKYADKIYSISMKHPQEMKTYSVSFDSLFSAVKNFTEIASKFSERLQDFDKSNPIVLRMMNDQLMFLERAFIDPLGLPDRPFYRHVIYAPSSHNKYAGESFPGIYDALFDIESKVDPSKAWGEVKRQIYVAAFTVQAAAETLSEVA
T6 sequence (Q07011 24-255 limits assumed): as the sequence (Q07011 24-255 limits assumed) above

Binder | EC50 [1] [nM] | EC50 [2] [nM] | EC50 [3] [nM] | IC50 [4] [nM] | Kd [5] [nM] | koff [5] [s⁻¹] | kon [5] [M⁻¹ s⁻¹] | Kd [6] [nM] | koff [6] [s⁻¹] | kon [6] [M⁻¹ s⁻¹] | EC50 [7] [nM] | EC50 (read off the curve) [8] [nM] | Kd [9] [nM] | koff [9] [s⁻¹] | kon [9] [M⁻¹ s⁻¹] | Kd [10] [nM] | koff [10] [s⁻¹] | kon [10] [M⁻¹ s⁻¹]
B1 | 0.39 | 0.28 | 0.97 | 13 | 4.8 | 0.0026 | 580000 | 0.66 | 0.00033 | 500000 | 3 | ~1 | – | – | – | – | – | –
B2 | 0.21 | 0.19 | 0.43 | 2.5 | 0.73 | 0.00031 | 410000 | 1.3 | 0.00054 | 430000 | 0.73 | ~0.8 | – | – | – | – | – | –
B3 | – | – | 0.09 | 0.73 | – | – | – | – | – | – | – | – | 0.085 | 0.0003 | 3.6e+06 | 0.27 | 0.00028 | 1.1e+06

From patent publication US20200362047A1 (CRESCENDO BIOLOGICS, published 2020)
